Paper PMC3378762

Columns and labels:
[1] = test system: NCCCNCCCCNCCCN; experiment: steady-state oxygen consumption, oxygen electrode; assay type: biochemical, Saccharomyces cerevisiae; settings: pH 9.35, 25 °C, 1.3 mM oxygen, 10% glycerol, pH 9.35
[2] = test system: CC(=O)NCCCNCCCCNCCCN; experiment: steady-state oxygen consumption, oxygen electrode; assay type: biochemical, Saccharomyces cerevisiae; settings: pH 9.0, 25 °C, 1.3 mM oxygen, 10% glycerol
[3] = target: Lys315 (UniProt position 315, FGTNNKIFLEF); experiment: kinetics; settings: Oxidative half-reaction, N1-acetylspermine as amine substrate; cited from earlier work

“Fms1 (Saccharomyces cerevisiae S288C; H67A)” showed a Km [1] of 1740 ± 310 µM, a kcat [1] of 0.44 ± 0.03 s⁻¹ and a kcat/Km [1] of 250 ± 50 M⁻¹ s⁻¹. It also gave a Km ([2]; pH 9.0) of 50 ± 13 µM, a kcat ([2]; pH 9.0) of 2.7 ± 0.1 s⁻¹ and a kcat/Km ([2]; pH 9.0) of 54000 ± 14000 M⁻¹ s⁻¹.
“Fms1 (Saccharomyces cerevisiae S288C; H67N)” showed a Km [2] of 18.6 ± 4.0 µM, a kcat [2] of 1.35 ± 0.04 s⁻¹ and a kcat/Km [2] of 72500 ± 15000 M⁻¹ s⁻¹.
With “Fms1 (Saccharomyces cerevisiae S288C; H67Q)” the Km [1] was 165 ± 25 µM, the kcat [1] was 0.88 ± 0.01 s⁻¹ and the Km ([2]; pH 9.0) was 47 ± 6 µM. It also gave a kcat ([2]; pH 9.0) of 3.9 ± 0.1 s⁻¹ and a kcat/Km ([2]; pH 9.0) of 83000 ± 11000 M⁻¹ s⁻¹.
For “N1-acetylpolyamine oxidase (mouse PAO) (Mus musculus)”, the pKa [3] is given as 7.0.
